Data published in patent US20220112276A1 (Janssen / Centocor, published 2022).

Experiments:
[1] = biological target: T1, human pIgR extracellular domain (ECD) (human, UniProt P01833 19-638); assay: SPR
T1 construct: Bought from R&D Systems (Cat 2717-PG-050); also called hpIgR ECD

[2] = biological target: T2, mouse pIgR extracellular domain (ECD) (mouse, UniProt O70570 19-645); assay: SPR, VHH captured by anti-Fc, ECD analyte
T2 construct: Bought from R&D Systems (Cat 2800-PG-050); also called mpIgR ECD
T2 sequence: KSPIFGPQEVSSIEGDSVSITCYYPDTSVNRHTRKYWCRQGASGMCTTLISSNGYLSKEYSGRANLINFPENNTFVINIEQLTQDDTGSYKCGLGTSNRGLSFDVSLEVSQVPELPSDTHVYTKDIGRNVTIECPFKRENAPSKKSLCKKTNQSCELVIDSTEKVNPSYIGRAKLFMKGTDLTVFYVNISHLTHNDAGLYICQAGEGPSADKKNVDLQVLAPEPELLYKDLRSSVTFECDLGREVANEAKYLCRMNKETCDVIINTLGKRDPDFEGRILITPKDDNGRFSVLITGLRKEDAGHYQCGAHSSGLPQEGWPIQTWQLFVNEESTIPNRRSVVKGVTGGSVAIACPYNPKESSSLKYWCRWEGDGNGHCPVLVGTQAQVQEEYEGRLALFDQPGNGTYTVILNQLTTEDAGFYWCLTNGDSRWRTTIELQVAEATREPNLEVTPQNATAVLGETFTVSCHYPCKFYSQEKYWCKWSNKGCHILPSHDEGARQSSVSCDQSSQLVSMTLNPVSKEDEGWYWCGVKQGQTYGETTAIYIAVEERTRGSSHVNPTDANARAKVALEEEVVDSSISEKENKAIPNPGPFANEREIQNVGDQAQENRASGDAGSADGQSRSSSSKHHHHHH
Method in brief: (§1)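 Single-cycle kinetics: ECD analyte from 30 nM, 3-fold series, low to high, with 30 min off-rate monitoring, over VHH captured at 0.5 ug/ml (~200-300 RU). HBSP plus 100 ug/ml BSA at 30 μL/min. Reference cell and buffer blank subtracted; global 1:1 Langmuir fit gave kon, koff, KD.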

[3] = biological target: T3, rat pIgR extracellular domain (rat, UniProt P15083 19-643); assay: SPR, VHH captured by anti-Fc, ECD analyte
T3 construct: extracellular domain
T3 sequence (looked up): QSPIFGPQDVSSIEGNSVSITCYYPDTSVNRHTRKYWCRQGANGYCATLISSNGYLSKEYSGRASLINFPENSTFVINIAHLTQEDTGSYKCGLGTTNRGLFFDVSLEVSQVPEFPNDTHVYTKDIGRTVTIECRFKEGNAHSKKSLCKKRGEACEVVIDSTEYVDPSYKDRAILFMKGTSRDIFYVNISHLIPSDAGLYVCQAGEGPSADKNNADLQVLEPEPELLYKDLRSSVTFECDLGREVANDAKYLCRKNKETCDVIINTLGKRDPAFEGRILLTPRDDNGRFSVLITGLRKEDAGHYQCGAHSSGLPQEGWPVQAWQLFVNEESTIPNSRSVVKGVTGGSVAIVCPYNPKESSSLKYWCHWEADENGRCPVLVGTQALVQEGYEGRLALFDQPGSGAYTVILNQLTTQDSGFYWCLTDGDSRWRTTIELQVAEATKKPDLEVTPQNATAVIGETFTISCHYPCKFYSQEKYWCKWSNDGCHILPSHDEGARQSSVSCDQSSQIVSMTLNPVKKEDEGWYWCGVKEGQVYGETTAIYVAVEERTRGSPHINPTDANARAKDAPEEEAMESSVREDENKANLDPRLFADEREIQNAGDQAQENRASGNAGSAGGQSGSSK
Method in brief: as §1

[4] = biological target: T4, cynomolgus monkey pIgR extracellular domain (cynomolgus monkey, UniProt A0A2K5WMU9 19-638); assay: SPR, VHH captured by anti-Fc, ECD analyte
T4 construct: extracellular domain
T4 sequence (A0A2K5WMU9 entry or part of it): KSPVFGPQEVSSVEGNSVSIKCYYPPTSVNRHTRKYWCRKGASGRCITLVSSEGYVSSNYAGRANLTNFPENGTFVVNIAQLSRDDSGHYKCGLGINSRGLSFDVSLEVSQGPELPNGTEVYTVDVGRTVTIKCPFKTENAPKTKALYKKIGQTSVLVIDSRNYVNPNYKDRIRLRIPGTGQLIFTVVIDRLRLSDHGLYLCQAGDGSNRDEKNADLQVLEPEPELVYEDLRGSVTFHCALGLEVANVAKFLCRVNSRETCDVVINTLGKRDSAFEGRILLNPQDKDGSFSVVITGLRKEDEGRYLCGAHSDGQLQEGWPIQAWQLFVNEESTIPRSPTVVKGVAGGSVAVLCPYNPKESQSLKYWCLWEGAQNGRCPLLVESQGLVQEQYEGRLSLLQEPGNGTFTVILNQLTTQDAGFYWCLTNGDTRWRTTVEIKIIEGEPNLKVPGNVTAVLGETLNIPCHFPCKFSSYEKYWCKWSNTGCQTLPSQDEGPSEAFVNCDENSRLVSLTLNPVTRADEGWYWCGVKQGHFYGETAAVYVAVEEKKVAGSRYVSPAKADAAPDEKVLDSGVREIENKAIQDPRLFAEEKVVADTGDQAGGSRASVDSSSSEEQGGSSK
Method in brief: as §1

T1 sequence (P01833 other isoform, or with tags, fused parts or gaps): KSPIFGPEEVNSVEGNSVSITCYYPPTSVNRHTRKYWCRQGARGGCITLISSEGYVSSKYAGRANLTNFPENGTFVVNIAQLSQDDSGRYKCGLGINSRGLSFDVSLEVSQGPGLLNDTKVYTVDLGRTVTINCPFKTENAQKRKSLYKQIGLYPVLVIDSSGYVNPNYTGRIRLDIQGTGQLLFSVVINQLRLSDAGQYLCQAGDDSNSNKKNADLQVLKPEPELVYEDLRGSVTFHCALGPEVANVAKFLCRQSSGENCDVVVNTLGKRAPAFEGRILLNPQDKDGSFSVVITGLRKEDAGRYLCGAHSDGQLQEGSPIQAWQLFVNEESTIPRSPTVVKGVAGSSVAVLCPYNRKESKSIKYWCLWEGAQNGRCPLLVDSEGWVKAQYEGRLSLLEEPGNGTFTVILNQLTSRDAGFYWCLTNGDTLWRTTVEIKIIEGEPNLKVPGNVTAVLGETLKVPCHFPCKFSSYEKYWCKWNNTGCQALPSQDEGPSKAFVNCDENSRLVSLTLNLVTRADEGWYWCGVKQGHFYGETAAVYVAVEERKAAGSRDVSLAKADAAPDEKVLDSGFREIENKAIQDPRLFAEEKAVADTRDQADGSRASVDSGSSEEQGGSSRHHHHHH

B1: 01E11R2 VHH Mono-Fc (Fc fusion)
chain: QVQLVESGGGLVQTGGSLRLSCAASGLTFSSYTMGWFRQAPGKEREFVAAISWGGASTWYADSVKGRFTISRDNAKTMVYLQMNGLKPEDTAVYYCAKGRNNGYATAVRAYDYWGQGTLVTVSSSPAPELLGGPSVFLFPPKPKDTLMISRTPEVTCVVVDVSHEDPEVKFNWYVDGVEVHNAKTKPREEQYNSTYRVVSVLTVLHQDWLNGKEYKCKVSNKALPAPIEKTISKAKGQPREPQVYTKPPSREEMTKNQVSLSCLVKGFYPSDIAVEWESNGQPENNYKTTVPVLDSDGSFRLASYLTVDKSRWQQGNVFSCSVMHEALHNHYTQKSLSLSPGK
[1]
  binding result: no binding (tested: 30 nM)
[2]
  Kd: 20.6 nM
[3]
  Kd: 22.5 nM
[4]
  Kd: 86.1 nM
